Experimental findings from US20250129166A1 (Five Prime, published 2025) are described below.

In general, Kd refers to the equilibrium constant for the complex coming apart. Higher therefore signals a looser complex. The term kon denotes the rate constant with which the complex forms. Low readings indicate slow association, high ones fast association. In general, koff refers to a measure of how fast the partners let go of each other. Low values mean a long-lived complex, high ones a short-lived complex.

Substitutions are numbered along the chain they refer to. Numbers in names are those of the source.

The target in experiment [1] is T1, monovalent hVISTA-ECD (amino acids 32-193 of SEQ ID NO: 1 with a 7xHis tail) (human, UniProt Q9H7M9 33-193).
T1 construct: also called huVISTA-His; human VISTA-ECD
As to the kind of experiment: SPR, mAb on Protein A, 37C, pH 6.0. As for the experimental part:
(§1) Binding of several preparations of each of the '029 progeny clones and of the parent '029 antibodies, formatted as IgG1.3 antibodies, to human VISTA at pH 6.0 and 7.4 was measured by Surface plasmon resonance (SPR). SPR analysis was performed to measure koff and KD binding affinity measurements for VISTA Abs at acidic and neutral pHs using a Biacore® T100 instrument (GE Healthcare). Protein A (ThermoFisher Scientific catalog #21181) was diluted to 20 μg/ml in 10 mM sodium acetate pH 4.5 and immobilized onto flow cells of a CM5 biosensor following the manufacturer's amine coupling protocol (GE Healthcare), targeting 2,000 RU immobilization density of Protein A per flow cell. SPR experiments were conducted at 37° C. using PBST (137 mM sodium chloride, 2.7 mM potassium chloride, 10 mM phosphate buffer, 0.05% Tween® 20) running buffer at pH 7.4 and 6.0. Antibodies were diluted to 25 nM in PBST pH 7.4, and were captured across active biosensor flow cells at 5 ul/min for 60 seconds. A concentration series of 50-5 nM monovalent hVISTA-ECD (SEQ ID NO: 325) was prepared in pH 7.4 and 6.0 running buffers, and was injected over the captured antibodies at 40 ul/min to measure association and dissociation. Two 15 second injections of 10 mM glycine pH 1.5 were used to regenerate the Protein A capture surface between assay cycles. Rate constants ka (kₒₙ) and kd (koff) were derived from reference flow cell and 0 nM blank-subtracted sensorgrams, and were fit to a 1:1 binding model in Biacore® T200 Evaluation Software v.2.0. The affinity constant, KD was calculated as the ratio of rate constants koff/kₒₙ for each VISTA antibody.

Experiment [2] deals with T1, monovalent hVISTA-ECD (amino acids …). Nature of the experiment: SPR, mAb on Protein A, 37C, pH 7.4. Here is the method:
as §1
For orientation: In SPR one partner is held on a chip, and binding of the other changes the refractive index at the surface.

For experiment [3] the target is unchanged. Nature of the experiment: SPR, mAb captured on Protein A, hVISTA-ECD analyte, 37 C, pH 6.0.
The target is the same in experiment [4]. As to the kind of experiment: SPR, mAb captured on Protein A, hVISTA-ECD analyte, 37 C, pH 6.7.
For experiment [5] the target is unchanged. Nature of the experiment: SPR, mAb captured on Protein A, hVISTA-ECD analyte, 37 C, pH 6.0. Here is the method:
(§2) Binding kinetics were measured using a Biacore® T100 instrument (GE Healthcare). Protein A (ThermoFisher Scientific catalog #21181) was diluted to 20 μg/ml in 10 mM sodium acetate pH 4.5 and immobilized onto flow cells of a CM5 biosensor following the manufacturer's amine coupling protocol (GE Healthcare), targeting 2,000 RU immobilization density of Protein A per flow cell. The assay was conducted at 37° C. using PBST (137 mM sodium chloride, 2.7 mM potassium chloride, 10 mM phosphate buffer, 0.05% Tween 20) running buffer at pH 7.4, 6.7 and 6.0. Antibodies were diluted to 25 nM in PBST pH 7.4, and were captured across active biosensor flow cells at 5 ul/min for 40 seconds. A concentration series of 100-10 nM monovalent hVISTA-ECD (SEQ ID NO: 325) was prepared in pH 7.4, 6.7 and 6.0 running buffers, and was injected over the captured antibodies at 40 ul/min to measure association and dissociation. Two 15 second injections of 10 mM glycine pH 1.5 were used to regenerate the Protein A capture surface between assay cycles. Rate constants ka (kon) and kd (koff) were derived from reference flow cell and 0 nM blank-subtracted sensorgrams, and were fit to a 1:1 binding model in Biacore® T200 Evaluation Software v.2.0.
(§3) The affinity constant, KD was calculated as the ratio of rate constants koff/kₒₙ for each VISTA antibody. The % Rmax was calculated to compare how pH affects an antibody's binding capacity for VISTA, and represents the measured maximal VISTA binding response relative to the expected maximal VISTA binding response. The % Rmax is defined as the ratio of the reference-subtracted ‘binding’ report point response at the end of the 100 nM VISTA injection for each antibody (Rmax) relative to the expected VISTA binding response (Rexp). Rexp is calculated as Rexp=[(VISTA-ECD molecular weight/mAb molecular weight)×(mAb ‘capture’ report point response (RUs)]×2 binding sites per mAb.
This is another data set of the same source.

The target is the same in experiment [6]. Nature of the experiment: SPR, mAb captured on Protein A, hVISTA-ECD analyte, 37 C, pH 6.7. Here is the method:
as §2, §3
The source holds these as a separate data set.

Experiment [7] addresses T2, hVISTA multimer: monobiotinylated hVISTA ECD (Phe 33-Ala 194, Accession #AAH20568, polyhistidine) loaded on … (human, UniProt Q9H7M9 33-194, limits assumed, monobiotinylated; loaded at a 28:1 molar ratio onto PE-conjugated streptavidin dextramers).
T2 construct: also called hVISTA-loaded dextramers; recombinant VISTA multimer
T2 sequence (looked up): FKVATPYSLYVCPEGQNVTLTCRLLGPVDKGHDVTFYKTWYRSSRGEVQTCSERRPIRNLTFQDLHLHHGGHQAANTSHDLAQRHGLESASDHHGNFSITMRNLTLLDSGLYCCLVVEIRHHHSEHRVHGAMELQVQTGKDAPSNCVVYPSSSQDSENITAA
Nature of the experiment: blocking of VISTA multimer binding to activated human CD4+ T cells, flow cytometry, pH 6.0. Here is the method: As a control, activated CD4+ T cells were stained with PE-conjugated streptavidin dextramers that were not loaded with hVISTA. The stained cells were washed with HBSS+MES and acquired on a flow cytometer. Data were analyzed using FlowJo™ software (BD Biosciences). […] Left, from darker gray to lighter, the filled histograms depict binding at pH 7.0, 6.5, 6.4, 6.3, 6.1, and 6.0. Some histograms are labeled with their corresponding pH. Non-VISTA control multimer binding at pH 6.0 is shown as the unfilled histogram. Right, graphed PE mean fluorescence intensities (MFI) of CD4+ T cells stained with hVISTA-loaded dextramers (circles) or with non-loaded dextramers (triangles) at various pH.
This blocking assay was performed as described in Example 4.
(A flow cytometer gives signals particle by particle.)

In experiment [8] the target is T3, human VISTA on cells (endogenous on human monocytes and AML3 cells; ectopic full-length on 293T cells) (human, UniProt Q9H7M9 33-311).
T3 sequence (looked up): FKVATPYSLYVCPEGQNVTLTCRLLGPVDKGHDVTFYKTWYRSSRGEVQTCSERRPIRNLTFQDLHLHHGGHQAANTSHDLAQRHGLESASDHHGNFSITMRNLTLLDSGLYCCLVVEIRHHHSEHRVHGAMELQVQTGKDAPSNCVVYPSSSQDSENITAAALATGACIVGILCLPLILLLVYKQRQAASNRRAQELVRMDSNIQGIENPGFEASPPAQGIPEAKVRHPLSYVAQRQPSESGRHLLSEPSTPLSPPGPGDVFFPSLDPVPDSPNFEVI
As to the kind of experiment: cell-based or functional assay.

For experiment [9], the target named is T4, full length human PSGL-1 (SEQ ID NO: 3) expressed on heparan sulfate-mutant CHO cells (human, UniProt Q14242 42-412).
T4 construct: also called CHO-PSGL-1 cells
T4 sequence: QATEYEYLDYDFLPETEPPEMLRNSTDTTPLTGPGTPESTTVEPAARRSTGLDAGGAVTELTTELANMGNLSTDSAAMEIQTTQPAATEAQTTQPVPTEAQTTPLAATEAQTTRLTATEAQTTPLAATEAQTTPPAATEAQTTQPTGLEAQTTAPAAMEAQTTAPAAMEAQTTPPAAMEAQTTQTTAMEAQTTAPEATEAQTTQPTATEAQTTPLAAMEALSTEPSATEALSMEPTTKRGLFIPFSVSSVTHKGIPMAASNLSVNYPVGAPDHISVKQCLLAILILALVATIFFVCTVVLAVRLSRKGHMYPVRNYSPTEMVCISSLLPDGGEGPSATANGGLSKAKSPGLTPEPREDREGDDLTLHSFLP
Nature of the experiment: VISTA-Fc binding to CHO-PSGL-1 cells at pH 6.0.

B1: P1-061029.IgG1.3 (antibody)
heavy: EVQLVESGGGLVQPGKSLRLSCAASGFTLDDYAMHWVRQAPGKGLEWVSGINWNSANIGYADSVKGRFTISRDNAKNSLYLQMNSLRTEDTALYYCAKVPGYSGGWIDAFDVWGQGTMVTVSSASTKGPSVFPLAPSSKSTSGGTAALGCLVKDYFPEPVTVSWNSGALTSGVHTFPAVLQSSGLYSLSSVVTVPSSSLGTQTYICNVNHKPSNTKVDKRVEPKSCDKTHTCPPCPAPEAEGAPSVFLFPPKPKDTLMISRTPEVTCVVVDVSHEDPEVKFNWYVDGVEVHNAKTKPREEQYNSTYRVVSVLTVLHQDWLNGKEYKCKVSNKALPAPIEKTISKAKGQPREPQVYTLPPSREEMTKNQVSLTCLVKGFYPSDIAVEWESNGQPENNYKTTPPVLDSDGSFFLYSKLTVDKSRWQQGNVFSCSVMHEALHNHYTQKSLSLSPG
light: not shown
notes: IgG1.3 = effectorless IgG1 (L234A, L235E, G237A); also called P1-061029 (parent); P1-061029 hIgG1.3f
In the case of B1, the equilibrium dissociation constant (Kd) in experiment [1] stood at 7.4 nM; in [2], 36 nM. Besides, the figures for the on-rate constant (kon) in [1] and in experiment [2] were 780000 M⁻¹ s⁻¹ and 180000 M⁻¹ s⁻¹, respectively. The off-rate (koff) in experiment [3] stood at 0.0082 s⁻¹; in experiment [4] it was 0.0044 s⁻¹; in experiment [5], 0.0082 s⁻¹; in [6], 0.0044 s⁻¹. Moreover, the “IC50 (read off the curve)” value in experiment [7] is approximately 50 ng/mL.

B2: P1-068761.IgG1.3 (antibody)
heavy: B1 heavy with D30E, Y32E, A56E, N57E, G104H, F110E
light: not shown
notes: IgG1.3; also called P1-068761 hIgG1.3f; P1-0687617
In experiment [1], B2 gave a Kd of 5.5 nM and an association rate constant (kon) of 280000 M⁻¹ s⁻¹. For the same molecule, the koff in experiment [4] was 0.0066 s⁻¹. In addition, in [7], the “IC50 (read off the curve)” value is approximately 30 ng/mL.

B3: VISTA.5 (mAb1) (antibody, V domains shown)
VH: AVQLQESGPGLVRPSQSLSLTCTVTDYSITSDYAWNWIRQFPGSKLEWLGFIGYSGNTNYNPSLESRISITRHTSKNQFFLHLNSMTTEDTATYYCARSLYGGSHWYFDVWGAGTTVTVSS
VL: DIVLTQSPASLAVSLGQRATISCRGSESVEYYGTILMQWYQQKPGQPPKLLIYGASNVESGVPARFSGSGSGTDFSLNIHPVEEDDIAMYFCQQSRKVPWTFGGGTKLEIK
Take B3: the “EC50 of AML3 cell viability (Cell Titer Glo), endolysosome-dependent secondary antibody drug conjugate killing assay” value in experiment [8] was found to be 0.485 µg/mL.

B4: H2R mutant (Fc fusion)
chain: T2 sequence (looked up) with H121R, H122R, H123R
notes: Produced by transient transfection of Expi293 cells; not shown: human IgG1 Fc part and any linker or tag of the VISTA-Fc construct
Take B4: the binding result in experiment [9] is reported as “binds”.
